According to the domain aggregation screens of Martell et al. (2025):

Assay: soluble fraction after stress (log2 fold change); higher = more stays soluble; pooled small domains, quantitative proteomics
Settings: stress: 75 degC
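Further: 20 min heating vs room temperature control held 20 min.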

**Q.** With “HMQSYHVGDKVTIKNSASHWATGQSIYNGVKGHTYKIIQTNGHKLLLDQVISWINDGDVYKAGS” as the sequence, how does the “soluble fraction (log2)” value read?
**A.** -0.497

**Q.** Which “soluble fraction (log2)” value does the source give for “HMHSRTWTSADGVKTFEGELQSYDAASGKVSVILPNHKRITFKQEKLSADDIAWLEKNGNRP” here?
**A.** -0.033

**Q.** With “HMIQIGEQIRYYRTKIGISQEALALMADINPAYIGQIERGIKSPTVNTIKKIANAMGINLHTLFT” as the sequence, how does the “soluble fraction (log2)” value read?
**A.** -2.94

**Q.** Which “soluble fraction (log2)” value does the source give for “HMAATSTGFPGVEVRGNSIRVFFMYKRDRHAHTLPLEPTRNNIKHADQLRSAALFALRNGTYNEADFFPHS” here?
**A.** -1.6

**Q.** For “HMHKYEYESLNHVNVGSNLKYISTHFGQPKLIKKSKYHENLNFAYYLEKKFILTLILEGDRVNAYTITG”, which “soluble fraction (log2)” value is on record?
**A.** -0.732

**Q.** For “HMGRTITVGIAEDADIKDIAKMLEEKGLISDYRLFVVQELLSAQHDKIKPGIYDLSTDMKAEEMLEILAG”, which “soluble fraction (log2)” value is on record?
**A.** -0.248

**Q.** Which “soluble fraction (log2)” value does the source give for “HMDRELVALVQKALSQLSEQQRRIVELHVMEGMKYLEIADLLQLSENTVRTHLKRAYKILRENH” here?
**A.** -1.98

**Q.** With “HMNAVITTQKAKQIALAHAGLSEADVNYVKAELENDDGVQVYDIEFYSKNIEYDYDINAVTGEIMSFDHDI” as the sequence, how does the “soluble fraction (log2)” value read?
**A.** -0.251

**Q.** With “HMGDGMEVWVNGSPVNLTGKDSFIFVDIFDFIDFDLTASKGRLIVIKVNGEYAEYTRPLHNGDTIEIYWEE” as the sequence, how does the “soluble fraction (log2)” value read?
**A.** 0.0346

**Q.** Which “soluble fraction (log2)” value does the source give for “HMGEELIEIQNLRNKERREAEAILKNLDLVPVIQEQFDDTVPINRVITTDPGPDSTVKKGTTVMIYVSKGP” here?
**A.** 0.415

**Q.** With “HMDYARYGLSEKEAELIELIAQGMNNKEISAEIYLSEGTVRNYISELLEKLELRDRTQLAVYYYTHR” as the sequence, how does the “soluble fraction (log2)” value read?
**A.** -2.72

**Q.** Which “soluble fraction (log2)” value does the source give for “HMIIIMKMGADESQVQETIKRIKDLGFNTHLSKGENRTIIGVIGDVSSIDESDVERLRATPYIAEVVRVS” here?
**A.** -0.455

**Q.** For “HMTALSIGTVVRFTGDRHYISSTGDTGYPASPGLAKITSINPGSKHPYHLIHIDNTSNVYGWVNKQDIIT”, which “soluble fraction (log2)” value is on record?
**A.** -1.17

**Q.** For “HMYAEVTITIEKGMTSDSVSKLLYKAGIVDDAKEFNNYIIKAGKSTKILIGEFTIQKGASYDDIIKIIA”, which “soluble fraction (log2)” value is on record?
**A.** -3.51

**Q.** Which “soluble fraction (log2)” value does the source give for “HMNATLSSSYPTSVVTDGEIYKLTFGLNGKYNGQEQITVKPHGDSNIYDSGGLRAYQNTQSNNVVTLN” here?
**A.** -0.0686

**Q.** With “HMATHGRRAVIELREKIVSGELPGGTRLFEVSLAETLDISRTPVREALSRLAEEGLLDRLPNGGFVVRR” as the sequence, how does the “soluble fraction (log2)” value read?
**A.** -1.18

**Q.** With “HMGRYATVPDVVGSTPEVARELIRSEGLRYVLSEETVYSDSDTGTVGRTDPESGTRMSADDEVVVYLS” as the sequence, how does the “soluble fraction (log2)” value read?
**A.** 0.0649

**Q.** Which “soluble fraction (log2)” value does the source give for “HMNSDQMKEHLDNLVDMAKKNDNTLIDTEIVNYFVGKPDIELNTDMMTKIFDYLDEHHVAVLS” here?
**A.** 0.146

**Q.** For “HMILALAISSEEDDARIYATYADRLREAYPASARVFEGMVDEEHEHRRRLIDLFQRRFGDTIPLVRREHV”, which “soluble fraction (log2)” value is on record?
**A.** -0.446

**Q.** For “HMEISTENESFSNGLLEHPHYTRPPVWEDLKIPAVLMSGHHGKVAEWRKQQSEALTQERRPDLWEAFG”, which “soluble fraction (log2)” value is on record?
**A.** -0.14

**Q.** With “HMKALRNQDVVVGKPLAMAVYDQHGVLLLGRGHVVISESQRQQLLERGFSIDAEQLGRLRAAIEATQRV” as the sequence, how does the “soluble fraction (log2)” value read?
**A.** -1.17

**Q.** Which “soluble fraction (log2)” value does the source give for “HMQSTEQVSVTVTIPPGGELRIDSDTFRVLLNGENVLDKQSGDWLMLSRDLLYLDIESAIGNGLSGNLIYT” here?
**A.** 0.486

**Q.** For “HMKLSDDIIVDTIKEIIEENKNMIEQRKMGAMGPLMGKAMAKFKGKADGQTVSNVIKDEILNIIN”, which “soluble fraction (log2)” value is on record?
**A.** -0.0773

**Q.** Which “soluble fraction (log2)” value does the source give for “HMKVSAEEQNILDALQAAGGYLPFHDKSNPEEIYEAFGISKKTFKMIIGSLYKQQKINLTQTGIQLII” here?
**A.** 0.303

**Q.** For “HMDSPALAIPSSAILRDGLEHIFFRQDPSDPDQVIRVVADLGLSDGRWTVVRSGLERTDQVVLSGA”, which “soluble fraction (log2)” value is on record?
**A.** 0.181

**Q.** For “HMGGTAGKINAIGVNFRTGPSTSYTSLGLLGKDTAVTVIGTSGKWYKVTIVSTGKTGYVYATYVNLTP”, which “soluble fraction (log2)” value is on record?
**A.** -2.25

**Q.** For “HMPEPLTARETEVLRLLSGGYSNREIAAAMFLAEGTIKNHVSAVLLKLGVRDRTRAVLRGLELGLIQ”, which “soluble fraction (log2)” value is on record?
**A.** -2.27

**Q.** For “HMEVALEVPELRGLSMKQATNTLMASGFEVQKVGSGTIYAQFPLPGERLRTGYAVTIRGKTRDLG”, which “soluble fraction (log2)” value is on record?
**A.** -0.345

**Q.** For “HMSGEITVPNLIGVEAIQAKTLLIQAGFLIKEFYDLDSTQPAGVVIRQAPEAGTTQTIGKSVTITINKQ”, which “soluble fraction (log2)” value is on record?
**A.** -1.25

**Q.** For “HMGPGSYVVNVKPYAYVSINGRDYGRTPVGPIRLDPGTYKVVFTHEHRPSFSRTIVVEAGRETFETFPYPG”, which “soluble fraction (log2)” value is on record?
**A.** -2.06
